Test results taken from article PMC1654158.

T1: Signal peptide peptidase (SPP) fluorescent fusion protein (CFP or YFP fused to the NH2- or COOH-terminus of SPP), Q8TCT9
T1 chain: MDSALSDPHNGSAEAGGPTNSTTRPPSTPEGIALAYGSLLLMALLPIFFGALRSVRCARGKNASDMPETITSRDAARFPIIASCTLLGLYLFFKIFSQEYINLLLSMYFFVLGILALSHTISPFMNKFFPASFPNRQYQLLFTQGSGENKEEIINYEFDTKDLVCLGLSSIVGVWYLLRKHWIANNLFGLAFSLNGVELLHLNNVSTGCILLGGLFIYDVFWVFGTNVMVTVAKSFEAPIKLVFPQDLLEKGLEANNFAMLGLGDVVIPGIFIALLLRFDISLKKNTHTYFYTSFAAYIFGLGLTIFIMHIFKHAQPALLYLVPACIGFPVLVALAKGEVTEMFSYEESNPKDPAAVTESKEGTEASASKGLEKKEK

T2: Epitope tagged signal peptide peptidase (SPP): COOH-terminal V5 tagged SPP (SPPCTV5) and NH2-terminal FLAG tagged SPP (…), Q8TCT9
T2 chain: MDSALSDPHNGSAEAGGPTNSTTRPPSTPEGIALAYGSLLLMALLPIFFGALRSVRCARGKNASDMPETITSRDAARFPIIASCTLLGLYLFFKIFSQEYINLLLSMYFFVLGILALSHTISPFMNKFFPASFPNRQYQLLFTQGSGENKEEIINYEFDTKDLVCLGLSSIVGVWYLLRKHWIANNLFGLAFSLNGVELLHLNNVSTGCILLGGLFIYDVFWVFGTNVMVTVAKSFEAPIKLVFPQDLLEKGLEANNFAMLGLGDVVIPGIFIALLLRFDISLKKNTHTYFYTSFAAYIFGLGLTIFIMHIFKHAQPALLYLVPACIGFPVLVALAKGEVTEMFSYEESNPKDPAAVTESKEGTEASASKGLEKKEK


Key:
[1] = target: T1, Signal peptide peptidase (SPP) …; assay: FRET or BRET; FLIM (fluorescence lifetime imaging microscopy) in live CHO cells co-transfected with CFP-SPP (donor) and YFP-SPP (acceptor) fusion constructs, 24 hours post-transfection, in Hank's Balanced Salt Solution; donor-only (empty vector) as negative control; details: remark: other sources report otherwise
[2] = target: T2, Epitope tagged signal peptide peptidase …; assay: FRET or BRET; FLIM in fixed (4% paraformaldehyde), permeabilised HEK cells stably overexpressing SPPCTV5 and …; goat anti-V5 labelled with Alexa 488 (donor), mouse anti-FLAG labelled with Cy3 (acceptor); cells expressing only SPPCTV5 as negative control; details: remark: other sources report otherwise

Row | Binder | CFP donor lifetime (donor CFP at COOH-terminus of SPP, acceptor YFP at COOH-terminus of SPP; donor only 2267 psec) [1] [psec] | CFP donor lifetime (donor CFP at NH2-terminus of SPP, acceptor YFP at COOH-terminus of SPP; donor only 2267 psec) [1] [psec] | CFP donor lifetime (donor CFP at NH2-terminus of SPP, acceptor YFP at NH2-terminus of SPP; donor only 2267 psec) [1] [psec] | Alexa 488 donor lifetime (donor Alexa 488 labeled SPPCTV5, acceptor Cy3 labeled …) [2] [psec] | Alexa 488 donor lifetime (donor Alexa 488 labeled SPPCTV5, acceptor Cy3 labeled …; donor only 2504 psec) [2] [psec]
1 | Signal peptide peptidase (SPP) fluorescent fusion protein (CFP or YFP fused to the NH2- or COOH-terminus of SPP), Q8TCT9 1-377 (enzyme) MDSALSDPHNGSAEAGGPTNSTTRPPSTPEGIALAYGSLLLMALLPIFFGALRSVRCARGKNASDMPETITSRDAARFPIIASCTLLGLYLFFKIFSQEYINLLLSMYFFVLGILALSHTISPFMNKFFPASFPNRQYQLLFTQGSGENKEEIINYEFDTKDLVCLGLSSIVGVWYLLRKHWIANNLFGLAFSLNGVELLHLNNVSTGCILLGGLFIYDVFWVFGTNVMVTVAKSFEAPIKLVFPQDLLEKGLEANNFAMLGLGDVVIPGIFIALLLRFDISLKKNTHTYFYTSFAAYIFGLGLTIFIMHIFKHAQPALLYLVPACIGFPVLVALAKGEVTEMFSYEESNPKDPAAVTESKEGTEASASKGLEKKEK | 1490 | 1530 | 1760 | – | –
2 | Epitope tagged signal peptide peptidase (SPP): COOH-terminal V5 tagged SPP (SPPCTV5) and NH2-terminal FLAG tagged SPP (…), Q8TCT9 1-377 (enzyme) MDSALSDPHNGSAEAGGPTNSTTRPPSTPEGIALAYGSLLLMALLPIFFGALRSVRCARGKNASDMPETITSRDAARFPIIASCTLLGLYLFFKIFSQEYINLLLSMYFFVLGILALSHTISPFMNKFFPASFPNRQYQLLFTQGSGENKEEIINYEFDTKDLVCLGLSSIVGVWYLLRKHWIANNLFGLAFSLNGVELLHLNNVSTGCILLGGLFIYDVFWVFGTNVMVTVAKSFEAPIKLVFPQDLLEKGLEANNFAMLGLGDVVIPGIFIALLLRFDISLKKNTHTYFYTSFAAYIFGLGLTIFIMHIFKHAQPALLYLVPACIGFPVLVALAKGEVTEMFSYEESNPKDPAAVTESKEGTEASASKGLEKKEK | – | – | – | 2200 | 1980
